Measured values reported in CN111620946A (JIANGSU DISEASE CONTROL AND PREVENTION CENTER JIANGSU …, dated 2020).

Legend:
[1] = target: SARS-CoV-2 S蛋白 (spike) on live virus, 分离株 BetaCoV/JS03/human/2020 (SARS-CoV-2, UniProt P0DTC2 14-1273); test: cell-based or functional assay
[2] = target: 重组SARS-CoV-2刺突蛋白胞外区 (extra cellular domain of spike protein) (SARS-CoV-2, UniProt P0DTC2 14-1213); test: SPR, Biacore 8K, S-ECD coupled to a CM5 chip, antibody 125nM~7.8nM in solution
[3] = target: SARS-CoV-2 S蛋白 (spike) on live virus, 分离株 BetaCoV/JS03/human/2020 (SARS-CoV-2, UniProt P0DTC2 14-1273); test: cell-based or functional assay; remark: listed apart in the source

B1: FC08 (antibody, V domains shown)
VH: VQLLQQSGAEVKKPGSSVKVSCKASGGTFSSYAISWVRQAPGQGLEWMGGIIPILGIANYAQKFQGRVTITADKSTSTAYMELSSLRSEDTAVYYCVRERGYSGYGAAYYFDYWGQGTLVTVSS
VL: QSVLTQPPSVSGAPGQRVTISCTGSSSNIGAGYDVHWYQQLPGTAPKLLIYGNSNRPSGVPDRFSGSKSGTSASLAITGLQAEDEADYYCQSYDSSLSGSVFGGGTKLTVL
- IC50(ng/ml), 体外中和实验 (live virus, Vero E6, CPE) [1]: 325 ng/mL
- Kd [2]: 0.8 nM

B2: FC11 (antibody, V domains shown)
VH: EVQLLESGGGVVQPGRSLRLSCAASGFTFSYYGMHWVRQAPGTGLEWVAVISYDGSNEYYADSVKGRFTISRDNSKNTLYLQMNSLRAEDTAVYYCAKAMFLGDSSGLTGLDMDVWGQGTTVTVSS
VL: DIELTQSPGTLSLSPGERATLSCRASQSVSSYLAWYQQKPGQAPRLLIYDASNRATGIPARFSGSGSGTDFTLTISSLEPEDFALYYCQQRGNWPPTFGGGTKLEIK
- IC50(ng/ml), 体外中和实验 (live virus, Vero E6, CPE) [1]: 818 ng/mL
- Kd [2]: 0.5 nM

B3: FC05 (antibody, V domains shown)
VH: VQLLEQSGAEVKKPGASVRVSCKVSGYTLPEVAMHWVRQAPGKGLEWMGGFDPEDGETIYAQKFQGRVTMTEDTSTDTAYMELSSLRSEDTAVYYCATTTPFSSSFWFDPWGQGTLVTVSS
VL: QSVLTQAPSVSGAPGQKVTISCSGSSSNIGNNYVSWYQQLPGTAPKLLIYDNNKRPSGIPDRFSGSKSGTSATLGITGLQTGDEADYYCGTWDSSLSAVVFGGGTKLTVL
- IC50(ng/ml), 体外中和实验 (live virus, Vero E6, CPE) [3]: 142 ng/mL
